Laboratory results as given in article PMC5913134, “The IL-33-PIN1-IRAK-M axis is critical for type 2 immunity in IL-33-induced allergic airway inflammation” (Nature Communications, 2018).

Tested on: mouse embryonic fibroblasts (MEFs)
Assay: IL-6 secretion by MEFs
Assay type: cell-based
Details: PIN1 KO MEFs, all IL-33 concentrations tested, 24 h
Description: Fig. 1 PIN1 is required for IL-33 to induces TH2 polarization and allergic inflammation. a 5 and15 min after IL-33 treatment of DC2.4 cells, cells were extracted and PIN1 activity was measured as previously described. Inset: PIN1 was immune precipitated and immune blotted for PIN1 or Ser71 phosphorylation as indicated. b WT and PIN1 KO MEF’s were treated with different concentrations of IL-33 for 24 h and the medium was measured for IL-6 secretion. c WT and PIN1 KO mice were treated with 200 ng/mice/day for 4 consecutive days and the BALF was examined for IL-4, 5, 6 and 13 by ELISA. d H&E staining representative of lungs from WT and PIN1 KO mice treated with IL-33 (n = 4). Scale bar = 50 µm. e Total cell number in the BALF of WT and PIN1 KO mice was measured using HEMAVET multispecies hematology analyzer. f Eosinophil cell number in the BALF of WT and PIN1 KO mice was measured using HEMAVET multispecies hematology analyzer. g Representative H&E staining of lung sections from WT and PIN1 KO mice after OVA-induced allergic asthma (n = 4). Scale bar = 50 µm. h IL-4, -5, -13 and IL-33 levels in the BALF of WT and PIN1 KO mice after OVA-induced allergic asthma. […] The data were analyzed by a Student’s two-tailed t test unless stated otherwise, and the values are reported as mean ± standard errors of the means (SEM). *- statistical significance (P < 0.05), **- significance (P < 0.01)

B1: IL-33: Recombinant mouse IL-33 purchased from BioLegend (protein, UniProt Q8BVZ5 1-266, looked up)
Interleukin-33: MRPRMKYSNSKISPAKFSSTAGEALVPPCKIRRSQQKTKEFCHVYCMRLRSGLTIRKETSYFRKEPTKRYSLKSGTKHEENFSAYPRDSRKRSLLGSIQAFAASVDTLSIQGTSLLTQSPASLSTYNDQSVSFVLENGCYVINVDDSGKDQEQDQVLLRYYESPCPASQSGDGVDGKKLMVNMSPIKDTDIWLHANDKDYSVELQRGDVSPPEQAFFVLHKKSSDFVSFECKNLPGTYIGVKDNQLALVEEKDESCNNIMFKLSKI
  IL-6 secretion in response to IL-33: abolished IL-6 secretion
